Results: patent US20260035456A1

Biological target: CRLR/RAMP3 (human)

Substance: hADM(22-52) (from UniProt P35318) (peptide)
- IC50 (read off the curve): 100 µg/mL
